Assay results taken from PMC7498053.

Biological target: RNA polymerase II (Pol II) immunopurified from HeLa cell nuclear extracts (human (endogenous in HeLa)) (UniProt P24928)
Assay: negative stain electron microscopy; minimal PIC (DNA/TBP/TFIIA/TFIIB/Pol II/TFIIF) assembled sequentially on biotinylated promoter DNA, GST-ORF24-NTD added last; purified on streptavidin beads, eluted with EcoRI, cross-linked with 0.05% glutaraldehyde; 2D and 3D classification and difference maps, ~20 A

“GST-ORF24-NTD (KSHV ORF24 residues 1-201 with an N-terminal GST tag) (domain or fragment)” showed a percent of PIC particle images with extra density of 25%.
